Molecular target: T1, full-length human Siglec-8 (Siglec-8^FL) (human, UniProt Q9NYZ4 17-499)
T1 construct: whole, on cells; Expressed by lentiviral transduction on K562, RS4;11, TF-1, EOL-1 and other cells; the same id is used for Siglec-8 endogenously expressed on LUVA cells, HMC1.2 cells and primary human eosinophils; also called Siglec-8^Hu; SAF2
Test: flow cytometry on K562 cells expressing Siglec-8 FL (FIG. 9C)
Protocol: (§1) FIGS. 9A-9D. Human Siglec-8 mAbs were tested flow cytometrically against (FIG. 9A) parental human lymphoid RS4; 11 cells (endogenously lacking Siglec-8 expression) and a subline engineered to express Siglec-8^FL, (FIG. 9B) parental human mast cell line, HMC1.2, enriched for expression of endogenous Siglec-8; and (FIG. 9C) parental human myeloid K562 (endogenously lacking Siglec-8 expression) and sublines of K562 cells engineered to express either Siglec-8^FL, Siglec-8^ΔE2, or Siglec-8^V-set; and (FIG. 9D) primary human eosinophils, as indicated. A negative control without primary mAbs was included, as was, in some experiments, a negative control with a non-binding primary mAb (13R4).

T1 sequence (Q9NYZ4 17-499): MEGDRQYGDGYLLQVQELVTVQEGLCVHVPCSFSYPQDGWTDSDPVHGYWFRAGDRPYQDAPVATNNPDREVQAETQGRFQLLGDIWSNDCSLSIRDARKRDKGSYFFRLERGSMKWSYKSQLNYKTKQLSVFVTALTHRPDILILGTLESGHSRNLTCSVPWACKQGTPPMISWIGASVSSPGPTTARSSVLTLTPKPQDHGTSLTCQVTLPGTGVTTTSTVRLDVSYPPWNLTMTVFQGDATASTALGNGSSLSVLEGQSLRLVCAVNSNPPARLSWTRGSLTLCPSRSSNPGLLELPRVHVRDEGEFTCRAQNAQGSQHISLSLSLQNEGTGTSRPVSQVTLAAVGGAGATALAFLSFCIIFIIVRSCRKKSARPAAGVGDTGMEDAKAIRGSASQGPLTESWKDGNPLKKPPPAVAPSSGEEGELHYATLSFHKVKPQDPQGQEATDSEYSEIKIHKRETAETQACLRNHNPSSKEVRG

Row | Binder | binding result
1 | S8-ATX1E4 (antibody, V domains shown, Only variable domains are tied to the name in the text; Produced as recombinant human IgG1 and IgG4 (S228P), kappa light chain; also called Sig8-1E4) VH: QVQLVQSGSELKKPGASVKVSCKTSGYTFTSYAMNWVRQAPGQGLEWMGWINTNTGNPTYAQGFRGRFVFSLDTSVSTAYLQISSLKAEDTAVYYCARDKYSSSWYWFDSWGQGTLVTVSS VL: DIQMTQSPSSLSASVGDRVTITCRPSQNISSYLNWYQQKPGKAPKLLIYAASSLRSGVPSRFSGSGSGTDFTLTVSSLQPEDFANYYCQQSYSTPYTFGRGTKLEIK | binds
2 | S8-ATX2F10 (antibody, V domains shown, Only variable domains are tied to the name in the text; also IgG4 (S228P); also called Sig8-2F10; S8-2F10) VH: EVQLVESGGDLVKSGGSLRLSCAASGFTFSDAWMSWVRQAPGKGLEWVGRIQSKTDGGTTDYVAPVKGRFTISRDDSKDTLYLHMNSLTTEDTAVYYCTTDLYYYGSGSYFLGQGTLVTVSS VL: DIQMTQSPSSLSASVGDRVTITCRASQNIITYLNWYQQKPGKAPKLLIYAASSLQSGVPSRFSGSGSGTDFTLTISSLQPEDFAIYHCQQSYNVPTTFGQGTKLEIK | binds
3 | S8-ATX1E1 (antibody, V domains shown, Only variable domains are tied to the name in the text; Produced as recombinant human IgG1 and IgG4 (S228P), kappa light chain; also called Sig8-1E1) VH: EVQLVESGGGLVQPGRSLRLSCAASGFMFDDYVMHWVRQAPGKGLEWVSGINWNSDNIGYADSVKGRFTISRDNAKNSLFLQMNSLRVEDTALYYCAKDIDAAAFDYWGQGTLVTVSS VL: DIVMTQSPLSLPVTPGEPASISCRSSQSLLHSNGYSYLAWYLQKPGQSPQLLIYLVSNRASGVPDRFTGSGSGTDFTLKISRVEAEDVGVYYCMQALQTPWTFGQGTKVEIK | binds
4 | S8-ATX1B6 (antibody, V domains shown, Only variable domains are tied to the name in the text; also made as IgG4 (S228P); also called Sig8-1B6; 11B6) VH: QVQLVESGGGVVLPGRSLRLSCAASGFTFNIYGMHWVRQAPGKGLEWVAVISYDGNNKEYADSVKGRFTISRDSSRNTLYLQMNSLRAEDTAVYYCAKRGYGSSSLEFWGQGTLVTVSS VL: DIQMTQSPSSLSASVGDRVTITCRSSQDIRNDLGWYQQKPGKAPKRLIYASSNLQSGVPSRFSGSGSGTEFTLTISSLQPDDFATYYCLQHNTYPYTFGQGTKLEIK | binds
5 | S8-ATX1B4 (antibody, V domains shown, Only variable domains are tied to the name in the text; Produced as recombinant fully human IgG1 and IgG4 (S228P) with a kappa light chain; also called Sig8-1B4; 11B4) VH: QVQLVESGGGVVQPGRSLRLSCAASGFTFSIYGMHWVRQAPGKGLEWVAVISYDGNNKDYTDSVKGRFTISRDNSKNTLYLQMNSLTAEDTAVYYCAKRGYGSSSLEFWGQGTLVTVSS VL: DIQMTQSPSSLSASVGDRVTITCRASQDIRNDLGWYQQKPGKAPKRLIYATSSLQSGVPSRFSGSRSGAEFTLTVSSLQPEDFATYYCLQHNTYPYTFGQGTKLEIK | binds
6 | S8-ATX1H4 (antibody, V domains shown, Only variable domains are tied to the name in the text; Produced as recombinant human IgG1 and IgG4 (S228P), kappa light chain; also called Sig8-1H4) VH: QVQLVQSGTEVKYPGASVKVSCKASGYTFIDYGISWVRQAPGQGLEWMGWISAYNGNTDYAQKLQGRVTMTTDTSTSTAYMDLRSLRSDDTAVYYCAREGEGYCTYGVCPSFDYWGQGTLVTVSS VL: EIVLTQSPGTLSLSPGERATLSCRASQSVSSSYLAWYQQKPGQAPRLLIYGASTRGTGIPDRFSGSGSGTDFTLTISRLEPEDFALYYCQQYGSSPYTFGQGTKLEIK | binds
7 | S8-ATX2A3 (antibody, V domains shown, Only variable domains are tied to the name in the text; IgG1 format in ADCC and eosinophil assays; also called Sig8-2A3) VH: QVQLQESGPGLVKPSETLSLTCTVSGASISGYYWNWIRQPPGKGLEWIGYIHYSGTTNYNPSLKSRITISLDTSENQFSLRLSSVTAADTAVYYCARDWYTGYDWEGFDYWGQGTLVTVSS VL: QSVLTQPPSVSGAPGQRVSFSCTGTSSNIGTGFDVHWYRQLPGTAPKVLIYNNNNRPSGVPDRFSASKSGTSASLAITGLQAEDEADYYCQSYDSSLSGSVFGGGTRLTVL | binds

Molecular target: T1, full-length human Siglec-8 (Siglec-8^FL)
Test: flow cytometry on Siglec-8-expressing cells, in some experiments of FIGS. 9A-9D
Protocol: as §1

Row | Binder | binding result
8 | negative control mAb 13R4 (recognizing E. coli beta-galactosidase) (antibody, V domains shown) VH: EVQLVESGGSLVKPGGSLRLSCAASGFTFSNYSMNWVRQAPGKGLEWISSISGSSRYIYYADFVKGRFTISRDNATNSLYLQMNSLRAEDTAVYYCVRSSITIFGGGMDVWGRGTLVTVSS VL: QSVLTQPASVSGSPGQSITISCAGTSSDVGGYNYVSWYQQHPGKAPKLMIYEDSKRPSGVSNRFSGSKSGNTASLTISGLQAEDEADYYCSSYTTRSTRVFGGGTKLAVLG | no binding

Source: patent US20250034245A1 (FRED HUTCHINSON CANCER CENTER, published 2025)
